{"source": "patent US8722052B2", "about": "“Vaccinia virus protein A46 peptide and use thereof” (priority 2008, dated 2014)", "key": {"[1]": {"molecular_target": "T1, TLR3 (Homo sapiens, UniProt O15455)", "T1 construct": "expressed in transfected cells", "test": "poly(I:C)-induced NFκB / ISRE luciferase reporter assay in HEK293_TLR3 cells", "assay_type": "cell-based", "conditions": "peptide 2, 5 or 10 μM, 25 μg/ml poly(I:C), 6 h", "experimental": "FIGS. 11A and B are bar charts showing the effect of A464 and scrambled A464 (ConA464) on poly(I:C)-induced TLR3 signalling in HEK293 cells. HEK293_TLR3 cells were seeded in 96 well plates (1.5×10^5 cells/ml) 24 hours before transfection with the plasmid DNA. Cells were transfected with 60 ng of either ISRE-Luciferase (A) or NFκB-Luciferase (B) and 20 ng of TK-Renilla reporter gene plasmids. The total volume of plasmid DNA transfected into the cells was made up to 230 ng by adding pcDNA.\nScrambled A464 (ConA464) (SEQ ID NO. 32) and A464 (SEQ ID NO. 20) peptides were added to the cells at a concentration of 2, 5 or 10 μM the next day and cells were stimulated with 25 μg/ml poly(I:C) 1 hour after treatment with the peptide. Cells were harvested and reporter gene assays performed 6 hr after stimulation with the agonist. No peptides were added to the control wells (black bars). Data is representative of at least three experiments each performed in triplicate. Data are expressed as mean fold induction±s.d. relative to control levels;\nFIGS. 20A and B are bar charts showing the effect of shortened A464 peptides with deletions of N- and C-terminal amino acids on TLR4- and TLR3-induced NFκB activation in HEK293 cells. HEK293_TLR4 (A) and HEK293_TLR3 (B) cells were seeded in 96 well plates (1.5×10^5 cells/ml) 24 hours before transfection with the plasmid DNA. Cells were transfected with 60 ng NFκB-Luciferase and 20 ng of TK-Renilla reporter genes, as in FIG. 11. A464N-2 (SEQ ID NO. 41) and A464C-3 (SEQ ID NO. 42) peptides were added to the cells at a concentration of 1, 5 or 25 μM the next day and cells were stimulated with either 10 ng/ml LPS (A) or 25 μg/ml Poly(I:C) (B) 1 hour after treatment with peptides. Cells were harvested and assayed for NFκB activation by reporter gene assay 6 hours after stimulation with the agonists. No peptides were added to the control wells (black bars). Data is representative of three experiments each performed in triplicate and is expressed as mean fold induction±s.d. relative to control levels;\nHEK293 cells were transfected using GeneJuice® a proprietary non-toxic transfection reagent. 200 μl/well cells at a density of 1×10^5 cells/ml were seeded the day before transfection. 0.8 μl of GeneJuice was mixed with 9.2 μl of serum-free DMEM (SFM) per transfection and incubated for 5 min at room temperature before adding the appropriate amount of the plasmid DNA. The GeneJuice/SFM/DNA mixture was then incubated at room temperature for 15 min before adding to the cells. 10 μl per well of the GeneJuice/SMF/DNA mixture was added to the cells in triplicate and the cells were allowed to recover for 18-20 hours before stimulation. […]"}, "[2]": {"molecular_target": "T2, TLR7 (Mus musculus, UniProt P58681)", "T2 sequence (P58681 27-1050)": "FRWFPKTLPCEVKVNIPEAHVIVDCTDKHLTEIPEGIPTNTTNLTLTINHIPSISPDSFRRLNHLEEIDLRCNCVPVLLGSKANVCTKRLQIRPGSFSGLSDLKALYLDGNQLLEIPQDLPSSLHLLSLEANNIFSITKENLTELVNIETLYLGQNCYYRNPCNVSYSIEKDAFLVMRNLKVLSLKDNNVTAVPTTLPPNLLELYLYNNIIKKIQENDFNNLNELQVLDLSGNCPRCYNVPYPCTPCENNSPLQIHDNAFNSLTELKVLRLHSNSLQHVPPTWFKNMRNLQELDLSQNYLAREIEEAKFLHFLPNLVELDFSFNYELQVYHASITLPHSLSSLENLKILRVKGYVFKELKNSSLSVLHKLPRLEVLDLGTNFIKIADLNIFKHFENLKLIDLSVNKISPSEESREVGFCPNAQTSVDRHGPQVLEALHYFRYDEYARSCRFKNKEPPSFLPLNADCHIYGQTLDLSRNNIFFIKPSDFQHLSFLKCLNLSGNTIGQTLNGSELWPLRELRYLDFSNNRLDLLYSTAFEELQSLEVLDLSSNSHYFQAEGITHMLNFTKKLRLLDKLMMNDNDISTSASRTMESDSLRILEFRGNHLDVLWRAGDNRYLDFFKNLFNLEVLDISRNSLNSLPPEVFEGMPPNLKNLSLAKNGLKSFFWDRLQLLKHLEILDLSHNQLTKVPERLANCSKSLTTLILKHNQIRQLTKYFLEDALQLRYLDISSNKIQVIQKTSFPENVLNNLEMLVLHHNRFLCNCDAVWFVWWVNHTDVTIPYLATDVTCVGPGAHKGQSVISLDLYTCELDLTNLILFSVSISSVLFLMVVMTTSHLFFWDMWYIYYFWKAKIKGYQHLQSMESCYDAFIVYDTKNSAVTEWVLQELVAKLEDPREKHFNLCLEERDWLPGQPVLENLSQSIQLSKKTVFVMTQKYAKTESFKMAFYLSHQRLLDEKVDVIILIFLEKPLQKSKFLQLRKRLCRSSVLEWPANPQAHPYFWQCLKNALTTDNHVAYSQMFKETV", "test": "murine TLR7 response", "assay_type": "cell-based"}}, "note": "Entries after “also recorded” stand apart in the source; their conditions may differ.", "data": [{"sequence": "KYSFKLILAEYRRRRRRRRR [Peptide A464]", "values": [{"measurement": "inhibition of TLR3-mediated ISRE induction", "setting": "[1]", "value": "slightly enhanced; also recorded: insensitive to inhibition"}, {"measurement": "inhibition of TLR3-mediated NFκB activation", "setting": "[1]", "value": "insensitive to inhibition; also recorded: slightly enhanced"}, {"measurement": "inhibition of murine TLR7", "setting": "[2]", "value": "insensitive"}]}]}
